# From patent US20060166191A1
# Target: wild-type Gag expressed from the full-length proviral construct pNL4-3 (HIV-1) (UniProt P12493)
# Test: cell-based or functional assay
substance,measurement,value
"AP3D-5′, AP3 δ subunit residues 1-742 (from UniProt O14617 1-742)","cells with particle budding among 100 consecutive 293T cells (thin-section electron microscopy), NL4-3 with AP3D-5′",0 cells of 100
